Measurements: patent US20250049960, “Multicomponent systems for site-specific genome modifications” (The Regents of the University of California, published 2025)

What was measured:
Conditions in all cases: tags: N-terminal FLAG (GT linker), from HEK293T
BoMo R2 RT [1] = target: T1, BoMo R2 RT (Bombyx mori); assay: pulldown; co-expressed in HEK293T, FLAG IP, non-cognate
T1 chain: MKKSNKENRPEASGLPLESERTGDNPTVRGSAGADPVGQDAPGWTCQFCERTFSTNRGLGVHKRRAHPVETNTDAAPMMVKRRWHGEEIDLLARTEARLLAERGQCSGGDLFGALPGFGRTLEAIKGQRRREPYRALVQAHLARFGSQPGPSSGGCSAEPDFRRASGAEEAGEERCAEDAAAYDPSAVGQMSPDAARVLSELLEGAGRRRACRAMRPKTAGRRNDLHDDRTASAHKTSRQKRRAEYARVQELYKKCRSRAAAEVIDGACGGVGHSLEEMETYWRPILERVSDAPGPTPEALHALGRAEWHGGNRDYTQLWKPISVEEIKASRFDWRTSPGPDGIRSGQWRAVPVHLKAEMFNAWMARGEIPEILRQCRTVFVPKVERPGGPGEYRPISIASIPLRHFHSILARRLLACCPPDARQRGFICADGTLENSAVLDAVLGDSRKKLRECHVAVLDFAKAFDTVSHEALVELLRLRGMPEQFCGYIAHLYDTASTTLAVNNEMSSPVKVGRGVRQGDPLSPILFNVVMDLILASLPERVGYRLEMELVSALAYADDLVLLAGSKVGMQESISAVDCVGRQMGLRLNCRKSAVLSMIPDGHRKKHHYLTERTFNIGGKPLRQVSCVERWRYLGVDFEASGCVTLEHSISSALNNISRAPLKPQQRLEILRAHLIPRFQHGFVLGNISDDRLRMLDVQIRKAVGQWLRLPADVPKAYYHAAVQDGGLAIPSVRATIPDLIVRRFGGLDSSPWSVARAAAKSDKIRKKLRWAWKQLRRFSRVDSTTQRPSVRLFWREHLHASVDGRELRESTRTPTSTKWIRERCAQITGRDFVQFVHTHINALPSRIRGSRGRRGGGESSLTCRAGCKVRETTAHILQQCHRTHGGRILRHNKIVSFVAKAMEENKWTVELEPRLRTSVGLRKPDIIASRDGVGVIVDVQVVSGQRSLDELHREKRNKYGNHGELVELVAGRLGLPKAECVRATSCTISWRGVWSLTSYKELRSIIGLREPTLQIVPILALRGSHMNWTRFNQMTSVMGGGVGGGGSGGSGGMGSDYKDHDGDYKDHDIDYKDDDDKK
Source text: (§1) 9 populations of HEK293T cells were transfected with different combinations of plasmids comprised of one of the pcDNA3.1 backbone plasmids expressing RT protein ORFs modified from B. mori (SEQ ID NO. 35, D. simulans (SEQ ID NO. 32), and O. latipes (SEQ ID NO. 8), and an additional plasmid expressing the 3′ UTR RNA from B. mori (SEQ ID 163), D. simulans (SEQ ID NO. 164), or O. latipes (SEQ ID NO. 154) R2 elements (see FIG. 11 A). Each RT protein was co-expressed with each 3′ UTR RNA.
(§2) After allowing sufficient time for the RT protein plasmids to be transcribed and translated and to associate with the transcribed 3′ UTR RNAs, cells were lysed and any RT protein+RNA template complexes were purified by FLAG immunopurification (Sigma FLAG antibody resin). RNA present in each input cell lysate and RNA associated with each immunopurified sample was purified. Equivalent aliquots of each input RNA sample and each RT-bound RNA sample were affixed to Hybond N+membrane (Cytiva) in a grid of spots. Membranes containing spots for each type of 3′ UTR RNA were probed together for the presence of the 3′ UTR RNA, as detected by hybridization to complementary oligonucleotide probes that were ³²P 5′-end-radiolabeled using T4 polynucleotide kinase (NEB). […]

BoMo R2 RT [2] = target: T1, BoMo R2 RT; assay: pulldown; co-expressed in HEK293T, FLAG IP, cognate
Source text: as §1, §2

OrLa R2 RT = target: T2, OrLa R2 RT (Oryzias latipes); assay: pulldown; co-expressed in HEK293T, FLAG IP, cognate; more selective
T2 chain: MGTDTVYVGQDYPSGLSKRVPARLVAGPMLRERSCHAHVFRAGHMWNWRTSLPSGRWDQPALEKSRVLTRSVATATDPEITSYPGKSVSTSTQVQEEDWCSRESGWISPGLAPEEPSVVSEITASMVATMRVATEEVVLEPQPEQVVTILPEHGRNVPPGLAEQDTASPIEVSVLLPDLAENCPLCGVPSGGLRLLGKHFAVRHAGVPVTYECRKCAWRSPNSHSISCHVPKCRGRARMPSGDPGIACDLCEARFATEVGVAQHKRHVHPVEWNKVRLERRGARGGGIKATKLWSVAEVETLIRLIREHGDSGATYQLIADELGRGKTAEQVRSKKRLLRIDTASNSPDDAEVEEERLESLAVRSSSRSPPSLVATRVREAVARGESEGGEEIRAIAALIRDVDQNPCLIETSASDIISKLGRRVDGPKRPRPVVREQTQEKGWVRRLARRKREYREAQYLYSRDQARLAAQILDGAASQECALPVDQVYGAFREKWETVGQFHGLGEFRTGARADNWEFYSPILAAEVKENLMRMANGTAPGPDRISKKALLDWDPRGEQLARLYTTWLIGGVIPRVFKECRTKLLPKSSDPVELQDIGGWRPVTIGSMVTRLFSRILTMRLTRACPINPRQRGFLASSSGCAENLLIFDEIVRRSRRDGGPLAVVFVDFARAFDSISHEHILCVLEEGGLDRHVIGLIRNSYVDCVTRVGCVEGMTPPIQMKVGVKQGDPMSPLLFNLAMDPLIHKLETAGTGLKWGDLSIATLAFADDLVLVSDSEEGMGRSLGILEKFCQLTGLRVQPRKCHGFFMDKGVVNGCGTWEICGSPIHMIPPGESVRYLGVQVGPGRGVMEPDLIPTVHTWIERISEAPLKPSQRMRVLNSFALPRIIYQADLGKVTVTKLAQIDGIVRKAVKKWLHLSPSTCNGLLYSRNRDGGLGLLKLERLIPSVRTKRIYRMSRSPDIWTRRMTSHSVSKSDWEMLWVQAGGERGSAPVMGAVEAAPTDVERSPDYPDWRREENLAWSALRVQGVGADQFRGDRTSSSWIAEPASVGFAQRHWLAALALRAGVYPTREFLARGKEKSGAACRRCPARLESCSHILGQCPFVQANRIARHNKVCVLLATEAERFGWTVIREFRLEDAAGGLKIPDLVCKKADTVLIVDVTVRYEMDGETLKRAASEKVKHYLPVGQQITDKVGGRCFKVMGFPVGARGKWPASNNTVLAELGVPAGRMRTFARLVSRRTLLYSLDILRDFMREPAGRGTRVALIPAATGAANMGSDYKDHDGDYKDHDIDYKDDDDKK
Source text: as §1, §2

B1: D. simulans R2 3'UTR RNA (ssRNA)
RNA: UAGCUAAAACGUUUGGUUCAAAACAUUUGCUUGCUGUCUUGGCAUAACAUCAAUAAAGGCAUAAACAUCGCAAAAUAAUGGUUAUAUAUAAAUGGCUAUGAGGAUGGUUUUAGUACGUAGGCGUUGCGGAACUUCGGUUCAGAUAGAGCAAUGAAUCGUGCAUGCUAGGAAAACUGACCACACGCAGUGUUGGCAGCCCUAGUAUCUUUCGAUAGAUUUCCAUACCUCCGCGAUCAAAAAAAAAAAAAAAAAAAAAAA
- binding result (BoMo R2 RT [1]): binds

B2: B. mori R2 3'UTR RNA (ssRNA)
RNA: UGAGCCUUGCACAGUAGUCCAGCGGUAAGGGUGUAGAUCAGGCCCGUCUGUUUCUCCCCCGGAGCUCGCUCCCUUGGCUUCCCUUAUAUAUUUUAACAUCAGAAACAGACAUUAAACAUCUACUGAUCCAAUUUCGCCGGCGUACGGCCACGAUCGGGAGGGUGGGAAUCUCGGGGGUCUUCCGAUCCUAAUCCAUGAUGAUUACGACCUGAGUCACUAAAGACGAUGGCAUGAUGAUCCGGCGAUGAAAA
- binding result (BoMo R2 RT [2]): binds

B3: O. latipes R2 3'UTR RNA (ssRNA)
RNA: UGAGGGGGACAGCUGGGAGUCUCGGCAUGAUUACAAAUCUUGCGCUGCACUCGGAUGUCGUCCCCGUGACGGACACAUUAAUCCGGAAAGCGAGUGGUGACUCGCCUCAAG
- binding result (OrLa R2 RT): binds
- binding result (BoMo R2 RT [1]): binds
